Assay [1] deals with T1, His-tagged SPIN1 (49–262) (mouse, UniProt Q61142 49-262).
T1 construct: mouse SPIN1 (Q61142), amino acids 49–262; 'Purified as above' would include cleavage of the tag, yet the protein is called His-tagged and detected by anti-His; source: E. coli BL21 (DE3), purified
Briefly: SEC; SPIN1–SPOCD1 fragment 1b complex purified on an S200 increase column before the nucleosome pull-down. The conditions noted are these: both partners purified.

In assay [2] the target is T2, mouse SPIN1 (amino acids 49–262), recombinant, His tag cleaved (mouse, UniProt Q61142 49-262).
T2 construct: mouse SPIN1 (Q61142), amino acids 49–262; The SPIN1 construct was cleaved with GST–3C protease overnight; also called recombinant SPIN1; source: E. coli BL21 (DE3), purified (His-tag column, 3C cleavage, ion exchange, SEC)
Kind of assay: pull-down; co-precipitation of recombinant proteins, Coomassie gel, n = 3. Conditions: both partners purified.

T2 sequence (Q61142 49-262): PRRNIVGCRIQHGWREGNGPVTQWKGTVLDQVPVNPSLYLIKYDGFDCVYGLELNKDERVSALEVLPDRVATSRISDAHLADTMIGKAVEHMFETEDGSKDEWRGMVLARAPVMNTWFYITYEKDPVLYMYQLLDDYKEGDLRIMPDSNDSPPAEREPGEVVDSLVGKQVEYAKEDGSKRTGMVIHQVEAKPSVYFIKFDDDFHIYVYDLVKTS
T1 sequence (Q61142 49-262): as above

B1: His-tagged SPOCD1 fragment 1b (domain or fragment, mouse, UniProt B1ASB6 203-409, looked up)
chain: VTQEPLQSPALYPEVLTEDSTDQQEVQPAFVVGSPGTPPDPVGPEDKAQSGSRMELEQGLSAPANSCASSPEPLGGLDGAPLEQRRPTHVKKRPWTSPDDSSQDHAEGASKKDFPRLEARVPRGVKTVYYVYTGSGIRLVGAASSSQPGQIEPLEELDTNSARRKRRPTTAHPTPCQSDPSETENAEPHQQRAEDPGEQGMTPLDAG
notes: source: E. coli BL21 (DE3), purified
For B1, the binding result in assay [1] is “binds”.

B2: mouse GST–SPOCD1-F1b (amino acids 203–409), recombinant (domain or fragment, UniProt B1ASB6 203-409, looked up)
chain: VTQEPLQSPALYPEVLTEDSTDQQEVQPAFVVGSPGTPPDPVGPEDKAQSGSRMELEQGLSAPANSCASSPEPLGGLDGAPLEQRRPTHVKKRPWTSPDDSSQDHAEGASKKDFPRLEARVPRGVKTVYYVYTGSGIRLVGAASSSQPGQIEPLEELDTNSARRKRRPTTAHPTPCQSDPSETENAEPHQQRAEDPGEQGMTPLDAG
notes: pET-based backbone; also called GST–F1b; SPOCD1 fragment 1b; source: E. coli BL21 (DE3), purified (glutathione sepharose, dialysis)
On to B2, for which, in assay [2], the binding result is given as “binds”.
